Test results taken from patent publication US20250171531A1 (ORIONIS BIOSCIENCES, published 2025).

How the values were obtained:
[1] = biological target: T1, recombinant IL-2 (Acro Biosystems) (UniProt P60568 21-153); assay: BLI, biotinylated IL-2 on streptavidin sensors, seven concentrations of construct as analyte
T1 construct: also called Interleukin-2; wild type recombinant IL-2
From the text: (§1) In brief, recombinant IL-2 (Acro Biosystems) was biotinylated using the Pierce Antibody Biotinylation Kit for IP (ThermoFisher) and loaded on Streptavidin sensors. […] Sensorgrams and calculated binding kinetics provided in FIG. 2 illustrate that (i) all anti-IL-2 constructs clearly bind to biotinylated IL-2; (ii) for both anti-IL-2 antibody scFv variants, the VL-VH configuration (referred to as scFv_v2) seems to work best; and (iii) TCB2-based anti-IL-2 constructs tend to associate faster, while NARA1 anti-IL-2 constructs dissociate slower.

[2] = biological target: CD8alpha on CD8 positive T cells of PBMCs (UniProt P01732 22-235, limits assumed); assay: cell-based or functional assay
[3] = biological target: T1, recombinant IL-2 (Acro Biosystems); assay: BLI (Octet RED96)
From the text: as §1

T1 sequence (P60568 21-153 limits assumed): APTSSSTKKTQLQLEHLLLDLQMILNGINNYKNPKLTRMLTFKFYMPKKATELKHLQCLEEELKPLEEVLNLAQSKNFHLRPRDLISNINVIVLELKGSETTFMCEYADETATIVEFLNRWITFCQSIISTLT
Sequence of CD8alpha on CD8 positive T cells of PBMCs (P01732 22-235 limits assumed): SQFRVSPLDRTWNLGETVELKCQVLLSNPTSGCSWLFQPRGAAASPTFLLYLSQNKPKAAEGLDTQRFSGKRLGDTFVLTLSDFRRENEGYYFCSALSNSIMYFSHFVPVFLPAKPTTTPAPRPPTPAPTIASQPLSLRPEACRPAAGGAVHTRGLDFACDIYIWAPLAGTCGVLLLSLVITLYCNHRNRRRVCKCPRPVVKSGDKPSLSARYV

Binder	binding result [1]	further results
anti-IL-2 Ab TCB2 scFv_VL-VH-3*GGGGS-anti-CD8 OKT8 scFv_VH-VL-6*His (bispecific antibody, Single chain of two scFvs with a C-terminal His6 tag; Leader (residues 1-19) left out) DIVMTQSPASLSMAIGEKVTIRCITSTDIDDDMNWYQQKPGEPPKLLISEGNTLRPGVPSRFSSSGYGTDFVFTIENMLSEDVADYYCLQSDNLPYTFGGGTKLEIKGGGGSGGGGSGGGGSEVQLQQSGAELARPGASVKLSCKASGYTFTTYWIQWVKQRPGQGLEWIGAIYPGDGDTRYIQNFKGKATLTADKSSSTAYMQLSSLASEDSAVYYCARSLATRGFYAMDYWGQGTSVTVSSGGGGSGGGGSGGGGSEVQLVQSGAEVKKPGASVKVSCKASGFNIKDTYIHWVRQAPGQGLEWIGRIDPANDNTLYASKFQGRATITADTSTSTAYLELSSLRSEDTAVYYCGRGYGYYVFDHWGQGTLVTVSSGGGGSGGGGSGGGGSDVQITQSPSSLSASVGDRVTITCRTSRSISQYLAWYQEKPGKTNKLLIYSGSTLQSGIPSRFSGSGSGTDFTLTISSLQPEDFATYYCQQVNEFPPTFGQGTKVEIKHHHHHH	binds	
anti-IL-2 Ab NARA1 scFv_VL-VH-3*GGGGS-anti-CD8 OKT8 scFv_VH-VL-6*His (bispecific antibody, Single chain of two scFvs with a C-terminal His6 tag; Leader (residues 1-19) left out) DIVLTQSPASLAVSLGQRATISCKASQSVDYDGDSYMNWYQQKPGQPPKLLIYAASNLESGIPARFSGSGSGTDFTLNIHPVEEEDAATYYCQQSNEDPYTFGGGTKLEIKGGGGSGGGGSGGGGSQVQLQQSGAELVRPGTSVKVSCKASGYAFTNYLIEWVKQRPGQGLEWIGVINPGSGGTNYNEKFKGKATLTADKSSSTAYMQLSSLTSDDSAVYFCARWRGDGYYAYFDVWGAGTTVTVSSGGGGSGGGGSGGGGSEVQLVQSGAEVKKPGASVKVSCKASGFNIKDTYIHWVRQAPGQGLEWIGRIDPANDNTLYASKFQGRATITADTSTSTAYLELSSLRSEDTAVYYCGRGYGYYVFDHWGQGTLVTVSSGGGGSGGGGSGGGGSDVQITQSPSSLSASVGDRVTITCRTSRSISQYLAWYQEKPGKTNKLLIYSGSTLQSGIPSRFSGSGSGTDFTLTISSLQPEDFATYYCQQVNEFPPTFGQGTKVEIKHHHHHH	binds	
anti-IL-2 Ab TCB2 scFv_VH-VL-3*GGGGS-anti-CD8 OKT8 scFv_VH-VL-6*His (bispecific antibody, Single chain of two scFvs with a C-terminal His6 tag; Leader (residues 1-19) left out) EVQLQQSGAELARPGASVKLSCKASGYTFTTYWIQWVKQRPGQGLEWIGAIYPGDGDTRYIQNFKGKATLTADKSSSTAYMQLSSLASEDSAVYYCARSLATRGFYAMDYWGQGTSVTVSSGGGGSGGGGSGGGGSDIVMTQSPASLSMAIGEKVTIRCITSTDIDDDMNWYQQKPGEPPKLLISEGNTLRPGVPSRFSSSGYGTDFVFTIENMLSEDVADYYCLQSDNLPYTFGGGTKLEIKGGGGSGGGGSGGGGSEVQLVQSGAEVKKPGASVKVSCKASGFNIKDTYIHWVRQAPGQGLEWIGRIDPANDNTLYASKFQGRATITADTSTSTAYLELSSLRSEDTAVYYCGRGYGYYVFDHWGQGTLVTVSSGGGGSGGGGSGGGGSDVQITQSPSSLSASVGDRVTITCRTSRSISQYLAWYQEKPGKTNKLLIYSGSTLQSGIPSRFSGSGSGTDFTLTISSLQPEDFATYYCQQVNEFPPTFGQGTKVEIKHHHHHH	binds	
'knob-in-hole' Fc-Anti-IL-2 construct (TCB2 scFv_v2-hFc3 + hFc4-OKT8 scFv) (bispecific antibody) chain 1: DIVMTQSPASLSMAIGEKVTIRCITSTDIDDDMNWYQQKPGEPPKLLISEGNTLRPGVPSRFSSSGYGTDFVFTIENMLSEDVADYYCLQSDNLPYTFGGGTKLEIKGGGGSGGGGSGGGGSEVQLQQSGAELARPGASVKLSCKASGYTFTTYWIQWVKQRPGQGLEWIGAIYPGDGDTRYIQNFKGKATLTADKSSSTAYMQLSSLASEDSAVYYCARSLATRGFYAMDYWGQGTSVTVSSGGSGGSGGSGGSGGSDKTHTCPPCPAPEAAGGPSVFLFPPKPKDTLMISRTPEVTCVVVDVSHEDPEVKFNWYVDGVEVHNAKTKPREEQYNSTYRVVSVLTVLHQDWLNGKEYKCKVSNKALPAGIEKTISKAKGQPREPQVCTLPPSRDELTKNQVSLSCAVKGFYPSDIAVEWESNGQPENNYKTTPPVLDSDGSFFLVSKLTVDKSRWQQGNVFSCSVMHEALHNHYTQKSLSLSPGK chain 2: not shown		IL-2 driven STAT5 phosphorylation in CD8+ over Treg cells [2]: 10 fold
anti-IL-2 Ab NARA1 scFv_VH-VL-3*GGGGS-anti-CD8 OKT8 scFv_VH-VL-6*His (bispecific antibody, Single chain of two scFvs with a C-terminal His6 tag) QVQLQQSGAELVRPGTSVKVSCKASGYAFTNYLIEWVKQRPGQGLEWIGVINPGSGGTNYNEKFKGKATLTADKSSSTAYMQLSSLTSDDSAVYFCARWRGDGYYAYFDVWGAGTTVTVSSGGGGSGGGGSGGGGSDIVLTQSPASLAVSLGQRATISCKASQSVDYDGDSYMNWYQQKPGQPPKLLIYAASNLESGIPARFSGSGSGTDFTLNIHPVEEEDAATYYCQQSNEDPYTFGGGTKLEIKGGGGSGGGGSGGGGSEVQLVQSGAEVKKPGASVKVSCKASGFNIKDTYIHWVRQAPGQGLEWIGRIDPANDNTLYASKFQGRATITADTSTSTAYLELSSLRSEDTAVYYCGRGYGYYVFDHWGQGTLVTVSSGGGGSGGGGSGGGGSDVQITQSPSSLSASVGDRVTITCRTSRSISQYLAWYQEKPGKTNKLLIYSGSTLQSGIPSRFSGSGSGTDFTLTISSLQPEDFATYYCQQVNEFPPTFGQGTKVEIKHHHHHH		binding result [3]: binds
